Positions count from the first letter of the chain named. In names and notes the source's numbering stands.
Columns and labels:
TG10 binding to PNAG 0 = test: Monosaccharide inhibition of antibody binding on the array
Experimental: (§1) This example describes how TG10 binding is inhibited by glucosamine. For small molecule inhibition assays, arrays were blocked and washed as previously described. Antibodies F598 and TG10 were diluted to 5 μg/mL in binding buffer. 20 mM N-Acetyl glucosamine and 20 mM glucosamine in binding buffer was prepared and an equal volume of the monosaccharide solutions were added to the diluted antibodies. Antibody/monosaccharide samples were incubated at room temperature for 30 min with rotation prior to being applied to the array. For the TG10 glucosamine IC50 inhibition assay, TG10 was diluted to 30 nM in binding buffer. A pH adjusted 1M stock of Glucosamine.HCl in PBS with 3% BSA (pH 7.2) was prepared and a serial dilution in binding buffer was made. Equal volumes of TG10 and each of the serial diluted glucosamine stocks was combined. Antibody/monosaccharide samples were incubated at RT for 30 min with rotation prior to being applied to the array.
(§2) Monosaccharide inhibition of both TG10 and F598 was studied on the array. The antibodies were incubated with 10 mM glucosamine, galactosamine, N-acetyl glucosamine, and N-acetyl galactosamine and then applied to the array. The binding of TG10 with PNAG 0 and of F598 with PNAG 31 were analyzed with and without monosaccharide inhibitors (FIGS. 5A-5D). Glucosamine had the greatest effect on TG10 binding to PNAG 0, reducing signal intensity by 94% at 10 mM […] (100% at 100 mM […]). As expected, N-acetyl glucosamine inhibited F598 binding with PNAG 31, reducing RFU by 74% at 10 mM GlcNAc and 99% at 100 mM GlcNAc. […] To further illuminate the small molecule inhibition properties of glucosamine on TG10, IC50 values for glucosamine was determined by titrating GlcNH2 with TG10.

[1] = tested on: F598 binding with PNAG 31; test: as above
Experimental: as §1, §2

[2] = target: TG10 binding to PNAG 0, PNAG 1, and PNAG 16; test: TG10 glucosamine IC50 inhibition assay on the array; settings: three best binding conjugates on the array (PNAG 0, PNAG 1, PNAG 16); TG10 diluted to 30 nM
Experimental: as §1
Monosaccharide inhibition of both TG10 and F598 was studied on the array. […] The binding of TG10 with PNAG 0 and of F598 with PNAG 31 were analyzed with and without monosaccharide inhibitors (FIGS. 5A-5D). […] To further illuminate the small molecule inhibition properties of glucosamine on TG10, IC50 values for glucosamine was determined by titrating GlcNH2 with TG10.

S. aureus Xen 36 cells = test: Binding to planktonic S. aureus, fluorescence microscopy; type: cell-based; settings: labeled mAb, 20 μg/mL, fixed planktonic cells
Experimental: (§3) TG10 binding was evaluated in the PNAG producing strains of S. aureus ATCC 29213 and Xen 36 following overnight culturing with shaking in TSB and TB, respectively. The cells were pelleted, fixed in 4% paraformaldehyde and coated on glass chips. The plated cells were extensively washed followed by incubation with 488-labeled TG10 or 488-labeled F598 prior fluorescent microscopy. For evaluating TG10 and F598 binding with S. aureus, S. aureus […] and Xen 36 were grown in TSB and LB overnight, respectively. Cells were pelleted and fixed in 4% paraformaldehyde. Cells were calibrated to OD 0.5. 100 μl suspension were used for each sample. Each sample were pelleted and resuspended in 20 μg/mL mAb TG10, F598 or both. After shaking for 2 hours under ambient temperature, cells were pelleted, washed and transferred to glass chips and allowed to air dry. A cover slide was mounted via anti-fade media.

[3] = tested on: S. aureus ATCC 29213 cells; test: as above; type: cell-based; settings: labeled mAb, 20 μg/mL, fixed planktonic cells
Experimental: as §3

[4] = target: PNAG 0 (fully deacetylated glucosamine pentasaccharide conjugate); test: Glycan microarray binding / apparent KD
Experimental: (§4) Neoglycoprotein (NGP) microarray fabrication was performed as follows. Several NGP microarrays were constructed as previously described. Two large arrays (8 duplicate arrays per slide) composed of 815 and 870 neoglycoproteins, glycoproteins, glycopeptide conjugates, and controls were constructed and used for the experiments in this report. Additionally, a PNAG-focused array (16 duplicates per slide) with 49 array components was fabricated and used to determine apparent KD values. Array component parent stocks were diluted to 125-200 μg/mL into print buffer (1×PBS buffer with 2.5% (v/v) glycerol, 0.0005% (v/v) Triton-X 100, 0.0005 μg/mL soluble print dye 0.05 μg/mL Atto 532 (Sigma 06699). Formulated components were printed in duplicate onto 2D-Epoxy functionalized glass slides (Poly-An #104-00-221) or SuperEpoxy 2 microarray slides (ArrayIt) using an Arrayit NanoPrint LM60 arrayer at 60% humidity. Following the print, slides were scanned in a microarray fluorescence scanner (Innopsys, InnoScan 1100 AL) to validate that array components were successfully deposited onto the slide surface. Binding profiles for a representative set of lectins and antibodies were used as QC for each printed microarray batch. The printed NGP microarrays were stored under vacuum at −20° C.
(§5) Antibody selectivity and apparent KD were determined using a NGP microarray. A pre-assay scan was performed to control for missing features. Selectivity and affinity of most mAbs were measured on the full array. A focused array was used to acquire an apparent KD measurement. A slide module (8 well for full array and 16-well for focused array) was mounted onto each slide and blocking buffer (3% BSA in PBS, pH 7.4) was applied to each well of the array. Blocking was performed overnight at 4° C. mAbs were serial diluted in binding buffer (1% BSA in PBST, pH 7.4). Following the block, wells were washed 4× with wash buffer (PBST, PBS with 0.05% tween-20). Primary mAb incubation was performed for 2.5 hours at 37° C. The wells were washed 5× with wash buffer. A CY3-labeled secondary antibody specific for the Fc portion of human IgG was diluted 500 fold into binding buffer and added to each array well (Jackson ImmunoResearch, 109-165-098). Secondary mAb incubation was performed for 1.5 hours at 37° C. Wells were washed 5× with wash buffer. Slides were removed from the slide module and submerged in wash buffer for 5 minutes. Washed slides were dried by centrifugation @ 1000×g in a centrifuge quipped with a swing bucket rotor. Fluorescent scans were obtained at multiple PMT values to maximize dynamic range. Raw data was analyzed using GenePix 7.0 software as previously described. Selectivity profiles and apparent KD curves were plotted in excel and Graphpad Prism. Apparent Kos were determined using one-site specific binding algorithm in Graphpad Prism.

S. aureus ATCC 29213 = test: Passive immunization, S. aureus lethal dose challenge in a murine model; type: in vivo, Balb/C mice; settings: 200 μg mAb intraperitoneally one hour before 200 million cfu via tail vein
Experimental: An in vivo study was performed to evaluate the prophylactic efficacy of TG10 against a S. aureus lethal dose challenge in a murine model of infection. TG10 and F598 were evaluated as monotherapies and as a mAb cocktail. […] The combination provided 90% survival.
Balb/C mice aged 12 weeks (n=10/group) were passively immunized with 200 μg F598, 200μ g TG10, or 100μ g F598+100μ g TG10 in 100 μl PBS intraperitoneally. 100 μl PBS was injected intraperitoneally in the negative control group (n=5). One hour later, 200 million cfu S. aureus ATCC 29213 cells were administrated via tail vein. Mice condition was monitored. A mouse unable to move or which lost more than 20% body mass was euthanized. Survival was better in all three groups when compared to the PBS control arm.

[5] = tested on: Staphylococcus epidermidis (ATCC 35984) suspension culture; test: Labeled antibody incubation with suspension cultures of microorganisms; type: cell-based; settings: Alexa Fluor 488 labeled TG10; data not shown
[6] = tested on: PNAG conjugates on the array (dPNAG, PNAG and intermediate levels of deacetylation); test: Neoglycoprotein (glycan) microarray binding, 816-component array; settings: for PNAG Binding on Array: ability to bind both dPNAG and PNAG and intermediate levels of deacetylation
[7] = target: PNAG 1 (glucosamine tetrasaccharide with an N-acetyl glucosamine at the reducing end); test: Glycan microarray apparent KD; type: binding; settings: PNAG 1 conjugate on the microarray
Experimental: as §4, with “Binding profiles for a representative set of lectins and antibodies were used as QC for each printed microarray batch. The printed NGP microarrays were stored under vacuum at −20° C.” left out
(§6) Antibody selectivity and apparent KD were determined using a NGP microarray. […] Selectivity and affinity of most mAbs were measured on the full array. […] Raw data was analyzed using GenePix 7.0 software as previously described. […]

[8] = target: PNAG 16 (glucosamine tetrasaccharide with an N-acetyl glucosamine at the terminal end); test: Glycan microarray apparent KD; type: binding; settings: PNAG 16 conjugate on the microarray
Experimental: as §4, with “Binding profiles for a representative set of lectins and antibodies were used as QC for each printed microarray batch. The printed NGP microarrays were stored under vacuum at −20° C.” left out
as §6

S. epidermidis biofilms = test: S. epidermidis biofilm staining, confocal microscopy; type: cell-based, Staphylococcus epidermidis; settings: fluorescently labeled antibodies at 5 μg/ml, fixed 20 hr biofilms
Experimental: For antibody labeling, recombinantly expressed antibodies were labeled with fluorescent dyes using Invitrogen antibody dye labeling kits. Concentration and labeling efficiency was confirmed using nanodrop. For S. epidermidis biofilm formation and confocal microscopy, Staphylococcus epidermidis (Winslow and Winslow) Evans ATCC 14990 was resuspended and cultured on tryptic soy broth agar plates according to ATCC recommended procedures. Single colonies were picked into 5 mL Tryptic Soy Broth (TSB) supplemented with 0.25% glucose (BD™ TSB) and bacteria were cultured overnight at 37 C with shaking (200 RPM). The overnight culture was diluted 1:100 into aerated TSB26. 400 μl (microliters) of the aerated culture was pipetted into 8-well chambered coverglass lab-tek II system suitable for confocal microscopy. Biofilms were allowed to mature for 20 hrs @37C without agitation. Mature films were washed 2×500 μl PBS to remove planktonic bacteria. The films were fixed in 4% paraformaldehyde in PBS for 30 minutes, washed 2×500 μl PBS and stained with fluorescently labeled antibodies diluted to 5 μg/ml. The labeled films were then washed 2×500 μl PBS and then stained for 10 minutes with Hoechst stain @ 10 μg/ml. The films were washed a final time and kept under PBS for imaging. […]

[9] = tested on: PNAG conjugates on the array (dPNAG, PNAG and intermediate levels of deacetylation); test: Neoglycoprotein (glycan) microarray binding, 816-component array; settings: single point mutations
Experimental: as §4, §5

Molecule: CC(=O)N[C@H]1C(O)O[C@H](CO)[C@H](O)[C@@H]1O (stereo partly shown) [N-acetyl galactosamine]
- reduction of signal intensity of TG10 binding to PNAG 0 (TG10 binding to PNAG 0; 10 mM monosaccharide): unchanged

Molecule: CC(=O)N[C@H]1C(O)O[C@H](CO)[C@@H](O)[C@@H]1O (stereo partly shown) [N-acetyl glucosamine]
- reduction of signal intensity of TG10 binding to PNAG 0 (TG10 binding to PNAG 0; 10 mM monosaccharide): 15%
- reduction of RFU of F598 binding with PNAG 31 ([1]; 10 mM monosaccharide): 74%
- reduction of RFU of F598 binding with PNAG 31 ([1]; 100 mM monosaccharide): 99%

Molecule: N[C@H]1C(O)O[C@H](CO)[C@H](O)[C@@H]1O (stereo partly shown) [galactosamine]
- reduction of signal intensity of TG10 binding to PNAG 0 (TG10 binding to PNAG 0; 10 mM monosaccharide): 45%

Molecule: N[C@H]1C(O)O[C@H](CO)[C@@H](O)[C@@H]1O (stereo partly shown) [glucosamine]
- reduction of signal intensity of TG10 binding to PNAG 0 (TG10 binding to PNAG 0; 10 mM monosaccharide): 94%
- reduction of signal intensity of TG10 binding to PNAG 0 (TG10 binding to PNAG 0; 100 mM monosaccharide): 100%
- IC50 [2]: 1000 to 2000 µM

B1: TG10: Antibody, HC SEQ ID NO: 3, LC SEQ ID NO: 12; primer mutations in ADI-45379 reverted to germline (antibody, V domains shown)
VH: EVQLVESGGGLVQPGGSLRLSCAVSGFPFSSYWMSWVRQAPGKGLEWVANIKEDGSEKYYVDSVKGRFTISRDNAKNSLYLQMNSLRAEDTAVYYCATDPDVGLSDSWGQGTLVTVSS
VL: EIVLTQSPGTLSLSPGDRATHSCRASQSVSRSYLAWYQQKPGQTPRLFIYGASNRATGIPDRFSGSGSGTYFTLTISRLEPEDFAVYYCQQYDSAPDTFGQGTRLEIK
modifications: TG10 Heavy Chain Variable Region; TG10 Light Chain Variable Region
notes: primer mutations in ADI-45379 reverted to germline
- binding to cells (S. aureus Xen 36 cells): bound
- binding to cells [3]: bound
- Kd ([4]; PNAG 0 conjugate on the microarray): 0.0083 µM
- apparent KD ([4]; PNAG 0 conjugate on the microarray, given in mass concentration): 1.25 µg/mL
- survival compared to the PBS control group (S. aureus ATCC 29213): increased survival
- fluorescent microscopy of spun-down culture [5]: strong fluorescent signal
- selectivity among PNAG glycoconjugates on the array ([6]; 816-component array): excellent selectivity for the highly deacetylated PNAG conjugates PNAG 0 and PNAG 1
- PNAG Binding on Array [6]: Yes
- Kd [7]: 0.0115 µM
- Kd [8]: 0.019 µM
- localization of labeled antibody within the biofilm (S. epidermidis biofilms): isolated to core cells within the microcolonies

B2: TG10 LC D116A: TG10 HC (SEQ ID NO: 3) with TG10 LC D116A (SEQ ID NO: 49) (antibody, V domains shown)
VH: B1 VH
VL: B1 VL with D97A
modifications: TG10 Heavy Chain Variable Region; Site directed mutatation of TG10 HC Variable Region
- effect of single point mutation on binding between TG10 and PNAG 0 ([4]; fully deacetylated PNAG conjugate PNAG 0): completely removed binding
- function of TG10 variant (binding to PNAG conjugates on the array) [9]: functionally dead
- PNAG Binding on Array [6]: No
